B1: TPR t1 (parent)
chain: GACCAAUCUGCCCUCAGAGCUCGAGAACAUCUUCGGAUGCAGAGGAGGCAGGCUUCGGUGGCGCGAUAGCGCCAACGUCCUCAACCUCCAAUGCAUCCCACCACAUGAUGAUGCCUGAAGAGCCUUGGUUUUUUG

Variants of: B1
Experiment: polymerase ribozyme fitness, log enrichment relative to wild type (log ratio); higher = more active; in vitro selection for triplet polymerase activity
Outline: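 Streptavidin-bead capture of gel-excised extended constructs, followed by RT-PCR, closed a single triplicate in vitro selection round. That round began by annealing PCR-built, transcribed mutant libraries of each subunit of a heterodimeric triplet polymerase ribozyme with a biotinylated primer, the partner subunit and triplets, then incubating them frozen at −7 °C. After Illumina sequencing of inputs and outputs, genotypes needed ≥10 input reads and ≥1 read per output. Fitness is the base-2 logarithm of genotype enrichment over wild-type enrichment, using inverse-variance-weighted replicate averages.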

**Q.** Which “polymerase ribozyme fitness (log ratio)” value does the source give for GACCAAUCUGCCCUCAGAGCUCGAGAACAUCUUCGGAUGCAGAGGAGGCAGGCUUGGGUGGCGCGAUAGCGCCAACGUCCUCAACCUCCAAUGCAUACCACCACAUGAUGAUGCCUGAAGAGCCUUGGUUUUUUG [C56G C97A] here?
**A.** -5.24

**Q.** Which “polymerase ribozyme fitness (log ratio)” value does the source give for GACCAAUCUGCCCUCAGAGCUCGAGAACAUCUUCGGAUGCAGAGGAGGCAGGCUUGGGUGGCGCGAUAGCGCCAACGUCCUCAACCUCCAAUGCAUCCCACCACAUGAUGAUGCCUGAAGAGCAUUGGUUAUUUG [C56G C124A U131A] here?
**A.** 1.66

**Q.** With GACCAAUCUGCCCUCAGAGCUCGAGAACAUCUUCGGAUGCAGAGGAGGCAGGCUUGGGUGGCGCGAUAGCGCCAACAUCCUCAACCUCCAAUGCAUCCCACUACAUGAUGAUGCCCGAAGAGCCUUGGUUUUUUG [C56G G77A C102U U116C] as the variant, how does the “polymerase ribozyme fitness (log ratio)” value read?
**A.** -3.2

**Q.** For GACCAAUCUGCCCUCAGAGCUCGAGAACAUCUUCGGAUGCAGAGGAGGCAGGCUUGGGUGGCGCGAUAGCGCCAACGUCCUCAACCUCCAAUGCAUCCCACCACAUGAUUGUGCCUGAAGAGCCUUGGUUUUUUG [C56G G110U A111G], which “polymerase ribozyme fitness (log ratio)” value is on record?
**A.** -2.16

**Q.** For GACCAAUCUGCCCUCAGAGCUCGAGAACAUCUUCGGAUGCAGAGGAGGCAGGCUUGGGUGGCGCGAUAGCGCCAACGUCCUCAACCUCCAAUGCAUACCACCACAUGAUGAUGCCUGAAGAACCUUGGUUUUUUG [C56G C97A G122A], which “polymerase ribozyme fitness (log ratio)” value is on record?
**A.** -4.86

**Q.** Which “polymerase ribozyme fitness (log ratio)” value does the source give for GACCAAUCUGCCCUCAGAGCUCGAGAACAUCUUCGGAUGCAGAGGAGGCAGGCUUGGGUGGCGCGAUAGCGCCAACGUCCUCAACCUCCAAUGCAUCCCACCACAUGAUGAUGCCUCAAGAGCCUUGGUUUUUUG [C56G G117C] here?
**A.** -2.91

**Q.** Which “polymerase ribozyme fitness (log ratio)” value does the source give for GACCAAUCUGCCCUCAGAGCUCGAGAACAUCUUCGGAUGCAGAGGAGGCAGGCUUGGGUGGCGCGAUAGCGCCAACGUCCUCAACCUCCAAUGCAUCCCACCACAUGAUGAUGCCUAAAGAGCCUUGGUUUUUUG [C56G G117A] here?
**A.** -2.32

**Q.** For GACCAAUCUGCCCUCAGAGCUCGAGAACAUCUUCGGAUGCAGAGGAGGCAGGCUUGGGUGGCGCGAUAGCGCCAACGUCCUCAACCUCUAAUGCAUCCCACCACAUGAUGAUGCCUGAAGAGCCUUGGUUUUUUG [C56G C89U], which “polymerase ribozyme fitness (log ratio)” value is on record?
**A.** -0.286

**Q.** Which “polymerase ribozyme fitness (log ratio)” value does the source give for GACCAAUCUGCCCUCAGAGCUCGAGAACAUCUUCGGAUGCAGAGGAGGCAGGCUUGGGUGACGCGAUAGCGCCAACGGCCUCAACCUUCAAUGCAUCCCACCACAUGAUGAAGCCUGAAGAGCCUUGGUUUUUUG [C56G G61A U78G C88U U112A] here?
**A.** -0.105

**Q.** With GACCAAUCUGCCCUCAGAGCUCGAGAACAUCUUCGGAUGCAGAGGAGGCAGGCUUGGGUGGCGCAAUAGCGCCAACGUCCUCAACCUCCAAUGCAUCCCACCACAUGAUGAUGCCUGAAGAGCCUUGGUUUUUUG [C56G G65A] as the variant, how does the “polymerase ribozyme fitness (log ratio)” value read?
**A.** -4.66

**Q.** For GACCAAUCUGCCCUCAGAGCUCGAGAACAUCUUCGGAUGCAGAGGAGGCAGGCUUGGGUGGCGCGAUAGCGCCAACGUCCUCAACCUCCAAUACAUCCCACCACAUGAUGAUGCCUGAAGAGCCUUGGUUUUUUG [C56G G93A], which “polymerase ribozyme fitness (log ratio)” value is on record?
**A.** -1.61

**Q.** Which “polymerase ribozyme fitness (log ratio)” value does the source give for GACCAAUCUGCCCUCAGAGCUCGAGAACAUCUUCGGAUGCAGAGGAGGCAGGCUUGGGUGGCGCGAUAGCGCCAACGUCCUCAACCUCCAAUCCAUCCCACCACAUGAUGAUGCCUGAAGAGCCUUGGUUUUUUG [C56G G93C] here?
**A.** -1.86

**Q.** With GACCAAUCUGCCCUCAGAGCUCGAGAACAUCUUCGGAUGCAGAGGAGGCAGGCUUGGGUGGCGCGAUAGCACCAACGUCCUAAACCUCCAAUGCAUCCCACCACAUGAUGAUGCAUGAAGAGCCUUGGUUUUUUG [C56G G71A C82A C115A] as the variant, how does the “polymerase ribozyme fitness (log ratio)” value read?
**A.** -3.76

**Q.** Which “polymerase ribozyme fitness (log ratio)” value does the source give for GACCAAUCUGCCCUCAGAGCUCGAGAACAUCUUCGGAUGCAGAGGAGGCAGGCUUGGGUGUCGCGAUAGCGCCAACGUCCUCAACCUCCAAUGCAUCCCACCACAUGAUGAUGCCUGAAGAGCCUUGGUUUUUUG [C56G G61U] here?
**A.** -2.32

**Q.** For GACCAAUCUGCCCUCAGAGCUCGAGAACAUCUUCGGAUGCAGAGGAGGCAGGCUUGGGUGACGCGAUAGCGCCAACGUCCUCAACCUCCAAUGCAUCCCACCACAUGAUGAUGCCUGAAGAGCCUUGGUUUUUUG [C56G G61A], which “polymerase ribozyme fitness (log ratio)” value is on record?
**A.** -2.31

**Q.** With GACCAAUCUGCCCUCAGAGCUCGAGAACAUCUUCGGAUGCAGAGGAGGCAGGCUUGGGUGGCGCGAUAGCGCCAACGUCCUCAACCUCCAAUGCAUCCCAUCACAUGAUGAUGCCUGAAGAGCCUUGGUCUUUUG [C56G C101U U130C] as the variant, how does the “polymerase ribozyme fitness (log ratio)” value read?
**A.** 0.475

**Q.** For GACCAAUCUGCCCUCAGAGCUCGAGAACAUCUUCGGAUGCAGAGGAGGCAGGCUUGGGUGGCGCGAUAGCGCCAACGUCCUCAACCUCCAAUUCAUCCCACCACAUGAUGAUGCCUGAAGAGCCUUGGUUUUUUU [C56G G93U G135U], which “polymerase ribozyme fitness (log ratio)” value is on record?
**A.** -3.52

**Q.** With GACCAAUCUGCCCUCAGAGCUCGAGAACAUCUUCGGAUGCAGAGGAGGCAGGCUUGCGUGGCGCGAUAGCGCCAACGUCCUCAACCUCCAAGGCAACCCACCACAUGAUGAUGCCUGAAGAGCCUUGGUUUAUUG [C56G G57C U92G U96A U132A] as the variant, how does the “polymerase ribozyme fitness (log ratio)” value read?
**A.** -3.72

**Q.** For GACCAAUCUGCCCUCAGAGCUCGAGAACAUCUUCGGAUGCAGAGGAGGCAGGCUUGGGUGGCGCGAUAGCGCCAACGUCCUCAACCUCCAAUGCAUCCCACCACAUGAUGAUGCUUGAAGAGCCUUGGUUUUUUG [C56G C115U], which “polymerase ribozyme fitness (log ratio)” value is on record?
**A.** -1.4

**Q.** Which “polymerase ribozyme fitness (log ratio)” value does the source give for GACCAAUCUGCCCUCAGAGCUCGAGAACAUCUUCGGAUGCAGAGGAGGCAGGCUUGGUUGGCGCGAUAGCGCCAACGUCCUCAACCUCCUAUGCAUCCCACCACAUGAUGAUGCCUGAAGAGCCUUGGUUUUUUG [C56G G58U A90U] here?
**A.** -1.92

**Q.** With GACCAAUCUGCCCUCAGAGCUCGAGAACAUCUUCGGAUGCAGAGGAGGCAGGCUUGGGUGGCGCGAUAGCGCCAACGUCCUCAACCUCCAAUGCAUCCCACCACAUGAUGAUACCUGAAGAGCCUUGGUUUUUUG [C56G G113A] as the variant, how does the “polymerase ribozyme fitness (log ratio)” value read?
**A.** -1.08

Reference: the RNAGym collection of RNA variant scans (doi:10.1073/pnas.2313332121)
